Among the data in patent US20230406915A1 (HJB HANGZHOU, published 2023) are Kd values, retold here.

Data set [1] concerns the molecule itself. Kind of data set: BLI (forteBIO Octet RED96), antibody captured on ProA biosensor, self-association in acetate buffer pH 5.5; acetate at pH 5.5; self-association. How it is done:
(§1) Self-association binding constant: At high concentrations, undesirable solution properties such as self-association can pose significant challenges to preparation development. In addition to potential manufacturing and delivery challenges, self-associating substances can also affect biological activity and pharmacokinetic properties.
(§2) The self-association binding constants were measured using the forteBIO Octet technique (Octet RED96). The antibodies were diluted to 150 ug/mL with an acetate buffer (pH 5.5), and then added to sample plates (forteBIO, Greiner, PN655209). A ProA biosensor (forteBIO) was used to capture antibodies. Measurements were performed using basic dynamics under the following settings: baseline 60/load 900/baseline 60/association 300/dissociation 300. The association (Kon) and dissociation (Kdis) rate constants of the target antigen were calculated and used to obtain the dissociation constant (KD). All calculations were performed using software provided by forteBIO.

Data set [2] concerns the molecule itself. Kind of data set: BLI (forteBIO Octet RED96), antibody captured on ProA biosensor, self-association in acetate buffer pH 5.5. How it is done:
as §1, §2

B1: M-751 (antibody, V domains shown)
VH: QVQLVQSGAEVKKPGSSVKVSCKASGYTFTNYWMNWVRQAPGQGLEWMGMIHPSDSETRLNQKFQGRVTITVDKSTSTAYMELSSLRSEDTAVYYCAREGRLGLRSYAMDYWGQGTLVTVSS
VL: DIQMTQSPSSLSASVGDRVTITCRSSQSLLNSSNQKNYLAWYQQKPGKVPKLLIYFASTRESGVPSRFSGSGSGTDFTLTISSLQPEDVATYFCQQHYITPLTFGGGTKVEIKR
notes: also called candidate antibody
On to B1, for which the Kd in data set [1] amounted to 438 µM.

B2: M-747 (antibody, human IgG1, kappa, V domains shown)
VH: QVQLVQSGSELKKPGASVKVSCKASGYTFTNYWMNWVRQAPGQGLEWMGMIHPSDSETRLNQKFKDRVTITVDKSTSTAYMELSSLRSEDTAVYYCAREGRLGLRSYAMDYWGQGTLVTVSS
VL: DIVMTQSPDSLAVSLGERATINCKSSQSLLNSSNQKNYLAWYQQKPGQPPKLLVYFASTRESGVPDRFSGSGSGTDFTLTISSLQAEDVAVYFCQQHYITPLTFGGGTKVEIKR
notes: Humanized anti-DKK2 parental antibody; also called parental antibody; parental molecule
B2 registered an equilibrium dissociation constant (Kd) in data set [2] of 208 µM.

B3: M-755 (antibody, V domains shown)
VH: QVQLVQSGAEVKKPGASVKVSCKASGYTFTNYWMNWVRQAPGQGLEWMGMIHPSDSETRLNQKLQGRVTITVDKSTSTAYMELRSLRSDDTAVYYCAREGRLGLRSYAMDYWGQGTLVTVSS
VL: DIQMTQSPSSLSASVGDRVTITCRSSQSLLNSSNQKNYLAWYQQKPGKAPKLLIYFASTRESGVPSRFSGSGSGTDFTLTISSLQPEDFATYFCQQHYITPLTFGGGTKVEIKR
notes: as for B1
B3: the Kd in data set [2] turned out to be 456 µM. This Kd lies about 2.2-fold higher than the previous one.
